Substrate in data set [1]: NC(=O)C1=CN([C@@H]2O[C@H](COP(=O)(O)OP(=O)(O)OC[C@H]3O[C@@H](n4cnc5c(N)ncnc54)[C@H](OP(=O)(O)O)[C@@H]3O)[C@@H](O)[C@H]2O)C=CC1
Nature of the data set: purified protein. The conditions noted are these: apparent, COBE (ethyl 4-chloro-3-oxobutanoate) 50 mM, NADPH 0.01-0.5 mM, pH 6.5, 40 °C, varied: cofactor. It counts as biochemical, Burkholderia gladioli.

Substrate in data set [2]: NC(=O)C1=CN([C@@H]2O[C@H](COP(=O)(O)OP(=O)(O)OC[C@H]3O[C@@H](n4cnc5c(N)ncnc54)[C@H](O)[C@@H]3O)[C@@H](O)[C@H]2O)C=CC1
Put plainly: purified protein. It counts as biochemical, Burkholderia gladioli. Particulars: apparent, COBE (ethyl 4-chloro-3-oxobutanoate) 50 mM, NADH 0.01-0.5 mM, pH 6.5, 40 °C, varied: cofactor.

One may read the Km as the substrate concentration at which the rate is half of its maximum. The term Vmax denotes the top rate of the reaction or transport when substrate is in excess. Usually kcat stands for the number of substrate molecules converted per active site and unit of time at saturation. The kcat/Km is the second-order rate constant that governs catalysis at low substrate concentration.

B1: BgADH3 (Burkholderia gladioli BSR3) (protein)
chain: MSETNSRRDFLRHAAAGTAGVAVAAVPGIAAAADGAPDAMPPLARMRNPHDLYPRAPFARQVQPVPGLASKMVPRPDHGETSYRGSNRLAGRKALVTGGDSGIGRAAAIAFAREGADVAINYLPVEESDAREVVALIRKEGRKCVAIPGDIRTEAFCRQLVERAVAELGGLDVLVSNAGHQQARDDIQDISSEQFEQTMKTNVYAPFWIAKAALPHMPAGSSVILTTSEQAFLPSANLLDYAPTKAANIAFVKALAKQQAPRGIRVNAVAPGATWTPLQTSGGQPPEVIDRFGQDNPTGRPAQPVELAPLYVTLASAESSFSSGQVFGANGATGAA
Turning to B1, in the data set “purified protein [1]”, the Km came to 81 µM, the Vmax stood at 9.1 µmol/min/mg, the kcat amounted to 10.6 s⁻¹ and the kcat/Km was 131000 M⁻¹ s⁻¹. Moreover, in the data set “purified protein [2]”, the Km was found to be 58 µM, the Vmax worked out at 3.4 µmol/min/mg, the kcat is 3.97 s⁻¹ and the kcat/Km is 68300 M⁻¹ s⁻¹.

The values are drawn from paper PMC5070160, “Efficient biosynthesis of ethyl (R)-4-chloro-3-hydroxybutyrate using a stereoselective carbonyl reductase from Burkholderia gladioli” (BMC Biotechnology, 2016).
